# Reference: IntAct's records for PubMed 35512704
# B1: Speckle-type POZ protein (Homo sapiens), O43791 (parent)
# chain: MSRVPSPPPPAEMSSGPVAESWCYTQIKVVKFSYMWTINNFSFCREEMGEVIKSSTFSSGANDKLKWCLRVNPKGLDEESKDYLSLYLLLVSCPKSEVRAKFKFSILNAKGEETKAMESQRAYRFVQGKDWGFKKFIRRDFLLDEANGLLPDDKLTLFCEVSVVQDSVNISGQNTMNMVKVPECRLADELGGLWENSRFTDCCLCVAGQEFQAHKAILAARSPVFSAMFEHEMEESKKNRVEINDVEPEVFKEMMCFIYTGKAPNLDKMADDLLAAADKYALERLKVMCEDALCSNLSVENAAEILILADLHSADQLKTQAVDFINYHASDVLETSGWKSMVVSHPHLVAEAYRSLASAQCPFLGPPRKRLKQS
# partner: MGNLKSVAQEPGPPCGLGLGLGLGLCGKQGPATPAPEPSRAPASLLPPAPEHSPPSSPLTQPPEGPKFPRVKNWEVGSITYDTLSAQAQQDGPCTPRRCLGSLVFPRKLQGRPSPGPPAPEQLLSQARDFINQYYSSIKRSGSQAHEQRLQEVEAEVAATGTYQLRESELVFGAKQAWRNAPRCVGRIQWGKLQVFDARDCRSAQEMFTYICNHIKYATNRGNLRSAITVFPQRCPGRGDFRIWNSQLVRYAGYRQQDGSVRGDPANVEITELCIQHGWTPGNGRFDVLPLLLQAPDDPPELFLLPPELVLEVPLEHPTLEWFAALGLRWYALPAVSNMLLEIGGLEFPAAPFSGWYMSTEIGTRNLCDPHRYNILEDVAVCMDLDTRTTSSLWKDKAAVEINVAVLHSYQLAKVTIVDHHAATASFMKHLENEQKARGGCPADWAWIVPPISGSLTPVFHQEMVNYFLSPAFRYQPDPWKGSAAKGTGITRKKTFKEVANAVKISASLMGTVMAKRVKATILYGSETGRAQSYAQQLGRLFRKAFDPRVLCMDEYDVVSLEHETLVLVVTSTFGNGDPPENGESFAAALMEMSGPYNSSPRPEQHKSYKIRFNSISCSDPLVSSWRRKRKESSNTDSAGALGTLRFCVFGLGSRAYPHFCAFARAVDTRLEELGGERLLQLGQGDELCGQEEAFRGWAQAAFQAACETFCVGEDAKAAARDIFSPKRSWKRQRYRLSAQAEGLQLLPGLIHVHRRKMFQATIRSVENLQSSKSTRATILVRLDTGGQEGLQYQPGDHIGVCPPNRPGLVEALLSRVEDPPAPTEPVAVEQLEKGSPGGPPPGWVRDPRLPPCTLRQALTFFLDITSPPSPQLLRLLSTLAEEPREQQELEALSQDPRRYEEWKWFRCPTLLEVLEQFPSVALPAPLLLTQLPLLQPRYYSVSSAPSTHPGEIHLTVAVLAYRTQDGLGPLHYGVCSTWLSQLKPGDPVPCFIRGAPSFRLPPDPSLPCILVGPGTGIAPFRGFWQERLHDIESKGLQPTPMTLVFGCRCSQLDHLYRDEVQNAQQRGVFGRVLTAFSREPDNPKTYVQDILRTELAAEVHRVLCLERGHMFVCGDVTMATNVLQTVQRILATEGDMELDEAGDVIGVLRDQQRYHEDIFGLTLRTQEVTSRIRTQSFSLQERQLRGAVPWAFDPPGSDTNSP
# B2: Speckle-type POZ protein (Homo sapiens), O43791 (parent)
# chain: B1 chain
# partner: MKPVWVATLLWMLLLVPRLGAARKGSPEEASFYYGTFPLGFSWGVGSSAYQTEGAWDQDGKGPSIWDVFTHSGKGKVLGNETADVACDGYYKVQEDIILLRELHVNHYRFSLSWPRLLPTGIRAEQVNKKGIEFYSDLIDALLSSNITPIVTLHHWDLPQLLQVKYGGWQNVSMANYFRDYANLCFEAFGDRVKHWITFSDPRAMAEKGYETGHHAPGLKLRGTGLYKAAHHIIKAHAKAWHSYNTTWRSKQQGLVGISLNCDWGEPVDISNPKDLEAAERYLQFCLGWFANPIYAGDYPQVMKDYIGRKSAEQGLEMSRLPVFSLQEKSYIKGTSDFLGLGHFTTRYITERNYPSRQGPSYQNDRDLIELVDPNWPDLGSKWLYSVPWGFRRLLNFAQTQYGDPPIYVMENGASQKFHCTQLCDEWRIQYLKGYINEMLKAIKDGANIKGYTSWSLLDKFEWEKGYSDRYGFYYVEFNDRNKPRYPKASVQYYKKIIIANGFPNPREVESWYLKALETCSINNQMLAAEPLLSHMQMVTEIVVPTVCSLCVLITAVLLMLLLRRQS
# B3: Speckle-type POZ protein (Homo sapiens), O43791 (parent)
# chain: B1 chain
# partner: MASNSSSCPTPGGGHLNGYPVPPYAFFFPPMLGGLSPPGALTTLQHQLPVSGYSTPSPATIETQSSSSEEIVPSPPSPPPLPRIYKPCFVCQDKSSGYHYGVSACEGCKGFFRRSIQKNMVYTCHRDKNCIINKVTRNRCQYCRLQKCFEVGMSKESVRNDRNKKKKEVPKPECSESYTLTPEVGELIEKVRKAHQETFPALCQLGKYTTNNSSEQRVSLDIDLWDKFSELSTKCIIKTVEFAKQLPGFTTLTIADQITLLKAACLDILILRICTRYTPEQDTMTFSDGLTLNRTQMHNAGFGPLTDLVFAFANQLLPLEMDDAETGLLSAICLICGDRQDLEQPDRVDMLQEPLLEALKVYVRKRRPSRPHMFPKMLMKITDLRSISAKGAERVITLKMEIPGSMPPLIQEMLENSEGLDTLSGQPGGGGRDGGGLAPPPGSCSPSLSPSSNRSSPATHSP
# B4: Speckle-type POZ protein (Homo sapiens), O43791 (parent)
# chain: B1 chain
# partner: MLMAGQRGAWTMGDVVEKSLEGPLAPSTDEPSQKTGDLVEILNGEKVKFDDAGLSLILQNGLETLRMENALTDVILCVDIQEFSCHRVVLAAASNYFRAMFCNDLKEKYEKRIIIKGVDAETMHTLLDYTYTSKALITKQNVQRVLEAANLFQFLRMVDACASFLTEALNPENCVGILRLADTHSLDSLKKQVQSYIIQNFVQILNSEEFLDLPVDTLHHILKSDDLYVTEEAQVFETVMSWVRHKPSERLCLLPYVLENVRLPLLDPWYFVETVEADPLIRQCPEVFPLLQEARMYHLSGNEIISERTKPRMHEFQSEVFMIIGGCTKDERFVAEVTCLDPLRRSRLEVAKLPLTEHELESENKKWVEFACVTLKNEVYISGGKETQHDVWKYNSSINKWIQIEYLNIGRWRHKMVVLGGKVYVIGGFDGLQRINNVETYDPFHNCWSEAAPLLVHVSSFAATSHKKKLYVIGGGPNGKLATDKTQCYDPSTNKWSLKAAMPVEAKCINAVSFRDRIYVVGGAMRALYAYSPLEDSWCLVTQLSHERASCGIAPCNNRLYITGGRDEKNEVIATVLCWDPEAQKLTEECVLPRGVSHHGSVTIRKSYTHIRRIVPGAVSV
# B5: Speckle-type POZ protein (Homo sapiens), O43791 (parent)
# chain: B1 chain
# partner: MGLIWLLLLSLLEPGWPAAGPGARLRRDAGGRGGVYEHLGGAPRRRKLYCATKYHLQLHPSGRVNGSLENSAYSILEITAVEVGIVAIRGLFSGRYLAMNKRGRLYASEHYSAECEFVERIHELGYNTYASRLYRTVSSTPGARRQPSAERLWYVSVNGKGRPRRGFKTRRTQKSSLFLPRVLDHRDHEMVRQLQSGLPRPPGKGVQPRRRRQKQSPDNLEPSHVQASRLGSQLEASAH
# B6: Speckle-type POZ protein (Homo sapiens), O43791 (parent)
# chain: B1 chain
# partner: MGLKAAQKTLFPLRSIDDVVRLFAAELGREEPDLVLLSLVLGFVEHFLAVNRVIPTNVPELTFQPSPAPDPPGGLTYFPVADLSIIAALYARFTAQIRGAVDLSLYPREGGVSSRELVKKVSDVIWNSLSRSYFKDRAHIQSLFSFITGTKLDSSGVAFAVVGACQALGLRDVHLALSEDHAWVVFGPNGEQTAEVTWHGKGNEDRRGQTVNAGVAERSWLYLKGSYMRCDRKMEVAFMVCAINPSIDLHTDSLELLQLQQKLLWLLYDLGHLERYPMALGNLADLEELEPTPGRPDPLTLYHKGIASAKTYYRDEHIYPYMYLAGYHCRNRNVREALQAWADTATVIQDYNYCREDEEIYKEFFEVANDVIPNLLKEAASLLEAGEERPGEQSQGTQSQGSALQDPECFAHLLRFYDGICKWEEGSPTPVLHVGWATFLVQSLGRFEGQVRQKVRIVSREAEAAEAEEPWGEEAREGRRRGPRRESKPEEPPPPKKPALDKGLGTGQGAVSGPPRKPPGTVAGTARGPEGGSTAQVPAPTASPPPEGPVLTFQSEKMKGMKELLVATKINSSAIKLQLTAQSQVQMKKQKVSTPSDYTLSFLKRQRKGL
# B7: Speckle-type POZ protein (Homo sapiens), O43791 (parent)
# chain: B1 chain
# partner: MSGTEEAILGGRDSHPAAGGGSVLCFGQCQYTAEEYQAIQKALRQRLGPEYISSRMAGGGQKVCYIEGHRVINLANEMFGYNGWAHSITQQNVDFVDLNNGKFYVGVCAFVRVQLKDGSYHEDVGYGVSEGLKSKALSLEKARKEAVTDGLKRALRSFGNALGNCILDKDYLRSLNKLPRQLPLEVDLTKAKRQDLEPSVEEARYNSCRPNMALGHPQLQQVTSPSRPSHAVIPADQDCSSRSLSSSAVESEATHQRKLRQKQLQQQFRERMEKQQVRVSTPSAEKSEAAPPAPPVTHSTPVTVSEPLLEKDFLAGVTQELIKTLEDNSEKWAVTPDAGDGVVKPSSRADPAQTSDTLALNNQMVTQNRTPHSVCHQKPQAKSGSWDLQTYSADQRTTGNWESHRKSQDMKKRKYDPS
# Variants of: B1
# Conditions: with nos3_human NOS3, P29474
row,effect of a mutation on the interaction,Variant
1,with no effect,F133V

# Variants of: B1
# Conditions: with nos3_human NOS3, P29474
# Remark: another data set of the same source
row,effect of a mutation on the interaction,Variant
1,with no effect,F102C

# Variants of: B2
# Conditions: with lctl_human LCTL
row,effect of a mutation on the interaction,Variant
1,with no effect,F133V

# Variants of: B2
# Conditions: with lctl_human LCTL
# Remark: another data set of the same source
row,effect of a mutation on the interaction,Variant
1,with no effect,F133L

# Variants of: B2
# Conditions: with lctl_human LCTL
# Remark: another data set of the same source
row,effect of a mutation on the interaction,Variant
1,with no effect,Y87C

# Variants of: B2
# Conditions: with lctl_human LCTL
# Remark: another data set of the same source
row,effect of a mutation on the interaction,Variant
1,with no effect,F102C

# Variants of: B3
# Conditions: with rara_human RARA
row,effect of a mutation on the interaction,Variant
1,with no effect,Y87C

# Variants of: B3
# Conditions: with rara_human RARA
# Remark: another data set of the same source
row,effect of a mutation on the interaction,Variant
1,with no effect,F102C

# Variants of: B3
# Conditions: with rara_human RARA
# Remark: another data set of the same source
row,effect of a mutation on the interaction,Variant
1,with no effect,F133V

# Variants of: B3
# Conditions: with rara_human RARA
# Remark: another data set of the same source
row,effect of a mutation on the interaction,Variant
1,with no effect,F133L

# Variants of: B4
# Conditions: with klhl6_human KLHL6, Q8WZ60
row,effect of a mutation on the interaction,Variant
1,with no effect,F102C

# Variants of: B4
# Conditions: with klhl6_human KLHL6, Q8WZ60
# Remark: another data set of the same source
row,effect of a mutation on the interaction,Variant
1,with no effect,F133L

# Variants of: B4
# Conditions: with klhl6_human KLHL6, Q8WZ60
# Remark: another data set of the same source
row,effect of a mutation on the interaction,Variant
1,with no effect,F133V

# Variants of: B4
# Conditions: with klhl6_human KLHL6, Q8WZ60
# Remark: another data set of the same source
row,effect of a mutation on the interaction,Variant
1,with no effect,Y87C

# Variants of: B5
# Conditions: with fgf3_human FGF3, P11487
row,effect of a mutation on the interaction,Variant
1,with no effect,F133L

# Variants of: B5
# Conditions: with fgf3_human FGF3, P11487
# Remark: another data set of the same source
row,effect of a mutation on the interaction,Variant
1,with no effect,F133V

# Variants of: B5
# Conditions: with fgf3_human FGF3, P11487
# Remark: another data set of the same source
row,effect of a mutation on the interaction,Variant
1,with no effect,Y87C

# Variants of: B5
# Conditions: with fgf3_human FGF3, P11487
# Remark: another data set of the same source
row,effect of a mutation on the interaction,Variant
1,with no effect,F102C

# Variants of: B6
# Conditions: with men1_human MEN1, O00255
row,effect of a mutation on the interaction,Variant
1,with no effect,Y87C

# Variants of: B6
# Conditions: with men1_human MEN1, O00255
# Remark: another data set of the same source
row,effect of a mutation on the interaction,Variant
1,with no effect,F102C

# Variants of: B6
# Conditions: with men1_human MEN1, O00255
# Remark: another data set of the same source
row,effect of a mutation on the interaction,Variant
1,with no effect,F133V

# Variants of: B6
# Conditions: with men1_human MEN1, O00255
# Remark: another data set of the same source
row,effect of a mutation on the interaction,Variant
1,with no effect,F133L

# Variants of: B7
# Conditions: with rad52_human RAD52, P43351
row,effect of a mutation on the interaction,Variant
1,with no effect,F102C

# Variants of: B7
# Conditions: with rad52_human RAD52, P43351
# Remark: another data set of the same source
row,effect of a mutation on the interaction,Variant
1,with no effect,Y87C
